Data published in paper PMC8452012, “Branched chain fatty acid synthesis drives tissue-specific innate immune response and infection dynamics of Staphylococcus aureus” (PLoS Pathogens, 2021).

How the values were obtained:
Test in all cases: purified protein
Settings in all cases: pH 8.0, 25 °C, 50 mM Tris-HCl, 1 mg/mL arabic gum, 0.05% Triton X-100, 10% isopropanol
[1] = tested on: CCCC(=O)Oc1ccc([N+](=O)[O-])cc1
[2] = tested on: CCCCCCCC/C=C\CCCCCCCC(=O)Oc1ccc([N+](=O)[O-])cc1
[3] = tested on: CCC(C)CCCCCCCCCCC(=O)Oc1ccc([N+](=O)[O-])cc1

Substance | Km [1] [µM] | Km [2] [µM] | Km [3] [µM]
Sal1; Sal1-6xHis (Staphylococcus aureus subsp. aureus USA300) | 332.4 | – | –
Geh (Sal2); Geh-6xHis (Staphylococcus aureus subsp. aureus NCTC 8325) | – | 160.5 | 74.1
